We go through four proteins from patent publication US6465618.

One series addresses T1, His-SAPK3, O08911.
T1 chain: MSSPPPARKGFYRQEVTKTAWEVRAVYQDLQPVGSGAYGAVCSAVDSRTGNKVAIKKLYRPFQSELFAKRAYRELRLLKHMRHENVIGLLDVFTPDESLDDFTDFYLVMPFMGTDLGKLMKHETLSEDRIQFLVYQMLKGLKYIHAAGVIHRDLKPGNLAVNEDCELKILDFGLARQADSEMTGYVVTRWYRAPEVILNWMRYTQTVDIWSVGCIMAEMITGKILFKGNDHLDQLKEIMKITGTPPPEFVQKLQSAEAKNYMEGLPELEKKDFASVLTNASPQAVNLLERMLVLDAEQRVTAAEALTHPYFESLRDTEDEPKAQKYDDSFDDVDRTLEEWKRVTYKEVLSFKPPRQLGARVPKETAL

His-p38, P47811, sequence (P47811 whole entry): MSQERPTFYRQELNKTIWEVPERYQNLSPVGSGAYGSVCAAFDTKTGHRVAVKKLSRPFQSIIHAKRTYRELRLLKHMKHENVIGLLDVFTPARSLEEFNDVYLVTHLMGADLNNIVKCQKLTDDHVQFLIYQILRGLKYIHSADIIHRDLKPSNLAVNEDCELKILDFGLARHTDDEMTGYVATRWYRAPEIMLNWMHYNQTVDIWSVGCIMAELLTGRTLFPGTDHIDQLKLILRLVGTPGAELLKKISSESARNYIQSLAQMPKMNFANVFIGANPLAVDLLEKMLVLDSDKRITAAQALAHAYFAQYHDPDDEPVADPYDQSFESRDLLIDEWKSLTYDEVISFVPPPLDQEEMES
GST-JNK1, P45983, sequence (P45983 other isoform, or with tags, fused parts or gaps): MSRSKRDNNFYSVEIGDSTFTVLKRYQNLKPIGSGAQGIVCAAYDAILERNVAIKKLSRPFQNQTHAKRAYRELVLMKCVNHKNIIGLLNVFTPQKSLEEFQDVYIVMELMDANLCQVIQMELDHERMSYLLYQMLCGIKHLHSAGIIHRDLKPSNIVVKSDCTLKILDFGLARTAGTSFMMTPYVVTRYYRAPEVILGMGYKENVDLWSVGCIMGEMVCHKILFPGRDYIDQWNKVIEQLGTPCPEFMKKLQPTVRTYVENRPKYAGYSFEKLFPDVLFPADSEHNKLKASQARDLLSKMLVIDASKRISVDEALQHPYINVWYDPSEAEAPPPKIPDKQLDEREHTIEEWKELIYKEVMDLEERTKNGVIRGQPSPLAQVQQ

B1: activated GST-MKK7 (protein)
chain: AASSLEQKLSRLEAKLKQENREARRRIDLNLDISPQRPRPIIVITLSPAPAPSQRAALQLPLANDGGSRSPSSESSPQHPTPPARPRHMLGLPSTLFTPRSMESIEIDQKLQEIMKQTGYLTIGGQRYQAEINDLENLGEMGSGTCGQVWKMRFRKTGHVIAVKQMRRSGNKEENKRILMDLDVVLKSHDCPYIVQCFGTFITNTDVFIAMELMGTCAEKLKKRMQGPIPERILGKMTVAIVKALYYLKEKHGVIHRDVKPSNILLDERGQIKLCDFGISGRLVDSKAKTRSAGCAAYMAPERIDPPDPTKPDYDIRADVWSLGISLVELATGQFPYKNCKTDFEVLTKVLQEEPPLLPGHMGFSGDFQSFVKDCLTKDHRKRPKYNKLLEHSFIKRYETLEVDVASWFKDVMAKTESPRTSGVLSQPHLPFFR
Regarding B1, in the series with GST-JNK1, P45983, the “phosphorylation (activation) of JNK1 in vitro, dot blot with anti-activated JNK antibody” value is “the activity of MKK7 was confirmed by the presence of activated JNK1”.

B2: GST-SEK1 (protein)
chain: MAAPSPSGGGGSGGGGGTPGPIGPPASGHPAVSSMQGKRKALKLNFANPPVKSTARFTLNPNTTGVQNPHIERLRTHSIESSGKLKISPEQHWDFTAEDLKDLGEIGRGAYGSVNKMVHKPSGQIMAVKRIRSTVDEKEQKQLLMDLDVVMRSSDCPYIVQFYGALFREGDCWICMELMSTSFDKFYKYVYSVLDDVIPEEILGKITLATVKALNHLKENLKIIHRDIKPSNILLDRSGNIKLCDFGISGQLVDSIAKTRDAGCRPYMAPERIDPSASRQGYDVRSDVWSLGITLYELATGRFPYPKWNSVFDQLTQVVKGDPPQLSNSEEREFSPSFINFVNLCLTKDESKRPKYKELLKHPFILMYEERTVEVACYVCKILDQMPATPSSPMYVD
With B2, in the series with His-SAPK3, O08911, the “activation of the MAP kinase in vitro (32P phosphorylation of MBP, SDS-PAGE and autoradiography)” value is “activated all of SAPK, p38 and SAPK3”. Also, the “activation of the MAP kinase in vitro (32P phosphorylation of GST-cJun, SDS-PAGE and autoradiography)” value with His-SAPKα, Q9WTU6 was “activated all of SAPK, p38 and SAPK3”. Further, the “activation of the MAP kinase in vitro (32P phosphorylation of ATF-2, SDS-PAGE and autoradiography)” value in the series with His-p38, P47811 is “activated all of SAPK, p38 and SAPK3”.

B3: His-MKK6 (protein)
chain: MSQSKGKKRNPGLKIPKEAFEQPQTSSTPPRDLDSKACISIGNQNFEVKADDLEPIMELGRGAYGVVEKMRHVPSGQIMAVKRIRATVNSQEQKRLLMDLDISMRTVDCPFTVTFYGALFREGDVWICMELMDTSLDKFYKQVIDKGQTIPEDILGKIAVSIVKALEHLHSKLSVIHRDVKPSNVLINALGQVKMCDFGISGYLVDSVAKTIDAGCKPYMAPERINPELNQKGYSVKSDIWSLGITMIELAILRFPYDSWGTPFQQLKQVVEEPSPQLPADKFSAEFVDFTSQCLKKNSKERPTYPELMQHPFFTLHESKGTDVASFVKLILGD
For B3, in the series with His-SAPK3, O08911, the “activation of the MAP kinase in vitro (32P phosphorylation of MBP, SDS-PAGE and autoradiography)” value is “activated p38 and SAPK3”. The “activation of the MAP kinase in vitro (32P phosphorylation of GST-cJun, SDS-PAGE and autoradiography)” value in the series with His-SAPKα, Q9WTU6 is “did not activate SAPK”. The “activation of the MAP kinase in vitro (32P phosphorylation of ATF-2, SDS-PAGE and autoradiography)” value in the series with His-p38, P47811 is “activated p38 and SAPK3”.

B4: His-MKK7 (protein)
chain: AASSLEQKLSRLEAKLKQENREARRRIDLNLDISPQRPRPIIVITLSPAPAPSQRAALQLPLANDGGSRSPSSESSPQHPTPPTRPRHMLGLPSTLFTPRSMESIEIDQKLQEIMKQTGYLTIGGQRYQAEINDLENLGEMGSGTCGQVWKMRFRKTGHIIAVKQMRRSGNKEENKRILMDLDVVLKSHDCPYIVQCFGTFITNTDVFIAMELMGTCAEKLKKRMQGPIPERILGKMTVAIVKALYYLKEKHGVIHRDVKPSNILLDERGQIKLCDFGISGRLVDSKAKTRSAGCAAYMAPERIDPPDPTKPDYDIRADVWSLGISLVELATGQFPYKNCKTDFEVLTKVLQEEPPLLPGHMGFSGDFQSFVKDCLTKDHRKRPKYNKLLEHSFIKHYEILEVDVASWFKDVMAKTESPRTSGVLSQHHLPFFSGSLEESPTSPPSPKSFPLSPAIPQAQAEWVSGR
Take B4: in the series with His-SAPK3, O08911, the “activation of the MAP kinase in vitro (32P phosphorylation of MBP, SDS-PAGE and autoradiography)” value was “did not activate p38 and SAPK3”. Besides, in the series with His-SAPKα, Q9WTU6, the “activation of the MAP kinase in vitro (32P phosphorylation of GST-cJun, SDS-PAGE and autoradiography)” value was “specifically activated SAPK, leading to the phosphorylation of c-Jun”. Moreover, the “activation of the MAP kinase in vitro (32P phosphorylation of ATF-2, SDS-PAGE and autoradiography)” value in the series with His-p38, P47811 was “did not activate p38 and SAPK3”.
